How the values were obtained:
[1] = system: plasminogen activating activity in pleural fluid; experiment: Intrapleural inactivation of tPA and uPA plasminogen activating activity, TCN-induced injury; format: in vivo, rabbit; details: during PAI-1-TFT of chemically induced pleural injury; slower phase, 10-40 min
Method: (§1) Amidolytic activity was measured in clear 96‐well flat bottom plates from Costar (Corning Inc.) using a Synergy™ HT Hybrid Reader (BioTek, Winooski, VT). Amidolytic activity was calculated from the initial slopes of the time traces of the change in absorbance at 405 nm upon hydrolysis of chromogenic as described previously (Komissarov et al., 2009, 2013). The plasminogen activating activity was determined from the relative rate of activation of exogenous Glu‐plasminogen added to the reaction mixture containing 0.1–0.5 µl of pleural fluid in 0.1 ml of Hepes buffer solution with BSA (1 mg/ml) as previously described (Florova et al., 2013, 2018). The reaction mixtures (0.1 ml in black 96‐well flat bottom plates from Costar) contained 100 nM of human Glu‐plasminogen with 0.2 mM of SN‐5 plasmin fluorogenic substrate (HTI, Essex Junction, VT). Plasmin activity was measured by recording changes in the fluorescence emission at 470 nm (F470) with time (excitation at 352 nm) using a Synergy™ HT Hybrid Reader (BioTek, Winooski, VT). The level of plasminogen activating activity [PA] was calculated from slopes of linear dependences of F470 from square of time (t^2) (F470 = A [PA] t^2 + B; where A and B are constants), and results of measurements of standards with known concentrations of tcuPA and tctPA as previously described (Komissarov et al., 2009, 2013). […]

[2] = system: plasminogen activating activity in pleural fluid; experiment: Intrapleural inactivation of tPA and uPA plasminogen activating activity, empyema; format: in vivo, rabbit; details: infectious pleural injury
Method: as §1

[3] = system: chemically induced (TCN) pleural injury; details: bolus, ref Idell et al., 2007; cited from earlier work
Text: (§2) Plasminogen Activator Inhibitor‐1 (PAI‐1) is a mechanism‐based inhibitor of tissue type (tPA) and urokinase (uPA) plasminogen activators (PAs) (Carrell et al., 1991; Chaillan‐Huntington et al., 1997; Mourik et al., 1984) used for fibrinolytic therapy. Levels of PAI‐1 increase by up to three orders of magnitude in empyema (pleural sepsis), and organizing pleural injury (Aleman et al., 2003; Chung et al., 2005; Philip‐Joet et al., 1995), limiting endogenous and exogenous plasminogen activating activity that could help prevent or treat uncontrolled fibrin deposition induced by inflammation. First, DSP alone was used to treat pleural injury in both models to determine its effects on the endogenous fibrinolytic system. The results (Figure 2) clearly indicate that even a relatively high dose of DSP (2.0 mg/kg) is insufficient to mobilize endogenous fibrinolysis effectively once pleural injury has developed; there was no reversal effect with DSP alone. DSP alone, even at a 4‐fold higher dose (8.0 mg/kg), was also ineffective (GLIS>10) in treatment of empyema (Figure 2). Next, PAI‐1‐TFT with ...

[4] = system: Streptococcus pneumoniae induced empyema; details: higher in empyema; ref Idell et al., 2007; cited from earlier work
Text: as §2

Substance | kobs of intrapleural inactivation of plasminogen activating activity [1] [min⁻¹] | kobs of intrapleural inactivation ([2]; with 2.0–8.0 mg/kg DSP) [min⁻¹] | Minimal effective dose (MED) of plasminogen activator alone [3] [mg/kg] | MED for empyema relative to MED in TCN-induced pleural injury [4] [fold] | kobs of intrapleural inactivation ([2]; with 2.0 mg/kg DSP) [min⁻¹]
Alteplase [sctPA, reference compound] | 0.02 to 0.05 | 0.024 ± 0.010 | 0.145 | 13.8 | 
Prourokinase [scuPA] | 0.02 to 0.05 |  | 0.5 | 4 | 0.014 ± 0.008
